In doi:10.1101/2021.08.20.457040 (bioRxiv, 2021):

Key:
[1] = molecular target: T1, His6-GIGYF2 GYF domain (residues 529-597) (human, UniProt Q6Y7W6 529-597); experiment: pull-down
T1 sequence (looked up): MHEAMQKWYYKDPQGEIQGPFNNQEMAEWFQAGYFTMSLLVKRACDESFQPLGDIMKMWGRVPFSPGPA

[2] = molecular target: T2, His6-GIGYF1 GYF domain (residues 470-538) (human, UniProt O75420 470-538); experiment: pull-down
T2 sequence (looked up): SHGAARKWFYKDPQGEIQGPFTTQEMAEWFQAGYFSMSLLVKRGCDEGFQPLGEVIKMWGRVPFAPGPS

- binding result [1]: binds
- binding result [2]: binds
Binder: GWVPPPPGFAP (peptide, UniProt P26651 68-78, looked up) [GST-tagged fragment of the first tetra-proline region of TTP (residues 68-78)]
